Test results from article doi:10.1101/2020.07.24.219675.

Target: sapC-PUMA (protein chimera of saposin C and the BH3 domain of PUMA)
Experiment: NMR titration

Kd: < 310 nM
koff: < 310 s⁻¹
stoichiometry N: 1
Substance: Bcl-xL-ΔTM (Bcl-xL without the transmembrane domain) (domain or fragment)
